T1: PTK7 (His tag) (UniProt Q13308 31-704)
T1 sequence: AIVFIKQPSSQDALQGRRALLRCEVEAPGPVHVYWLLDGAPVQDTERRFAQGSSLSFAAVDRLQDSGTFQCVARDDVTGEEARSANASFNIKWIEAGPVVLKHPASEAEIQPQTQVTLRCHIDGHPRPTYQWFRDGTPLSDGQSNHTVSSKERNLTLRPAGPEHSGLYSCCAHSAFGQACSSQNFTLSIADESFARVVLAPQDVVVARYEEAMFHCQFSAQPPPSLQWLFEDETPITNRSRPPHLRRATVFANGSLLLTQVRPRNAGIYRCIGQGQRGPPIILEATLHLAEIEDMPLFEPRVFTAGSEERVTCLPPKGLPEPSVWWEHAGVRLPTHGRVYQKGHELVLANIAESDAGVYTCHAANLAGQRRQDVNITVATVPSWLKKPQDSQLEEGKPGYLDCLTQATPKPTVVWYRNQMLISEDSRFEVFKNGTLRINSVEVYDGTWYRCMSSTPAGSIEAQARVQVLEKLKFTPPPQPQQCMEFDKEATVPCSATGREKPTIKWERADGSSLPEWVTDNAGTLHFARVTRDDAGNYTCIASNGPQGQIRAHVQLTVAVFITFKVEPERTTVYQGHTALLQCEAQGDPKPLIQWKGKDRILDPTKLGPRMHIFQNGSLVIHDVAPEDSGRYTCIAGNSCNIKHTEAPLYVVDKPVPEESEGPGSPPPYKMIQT

B1: G9T·C13A (structured_DNA)
DNA: ATCTAACTTCTGAGCCGCCGGGAAAATACTGTACGGTTAGA
B2: G9A·C13T (structured_DNA)
DNA: ATCTAACTACTGTGCCGCCGGGAAAATACTGTACGGTTAGA
B3: C10T·G12A (structured_DNA)
DNA: ATCTAACTGTTACGCCGCCGGGAAAATACTGTACGGTTAGA
B4: C10G·G12C (structured_DNA)
DNA: ATCTAACTGGTCCGCCGCCGGGAAAATACTGTACGGTTAGA
B5: G9C·C13G (structured_DNA)
DNA: ATCTAACTCCTGGGCCGCCGGGAAAATACTGTACGGTTAGA
B6: C10A·G12T (structured_DNA)
DNA: ATCTAACTGATTCGCCGCCGGGAAAATACTGTACGGTTAGA

Each binder was assayed against T1, PTK7 (His tag) (assay: SPR).
B1: no binding. B2: no binding. B3: no binding. B4: no binding. B5: no binding. B6: no binding.
